Molecular target: porcine pancreatic elastase (PPE) (Sus scrofa, UniProt P00772)
Experiment: Inhibition of porcine pancreatic elastase by rAAT (specific activity)
Type: biochemical
Protocol: To determine the specific activity, the rAAT small spherical particles were dissolved in 0.2M Tris-HCl pH 8.0 at room temperature. The resulting solution was analyzed by an assay which measures the capacity of rAAT to inhibit the ability of porcine pancreatic elastase (PPE) to hydrolyze synthetic peptides that contain a p-nitroanilide group at their C-terminus. The same solution of rAAT small spherical particles was then assayed for protein concentration using the Bicinchoninic Acid (BCA) assay. A control rAAT starting material solution was also analyzed in both assays. Because the activity assay was developed to determine the activity based on a concentration of 1 mg/ml protein per sample, the activity value was corrected based on the actual protein concentration as determined by BCA, giving the specific activity value: [formula]

Sequence of porcine pancreatic elastase (PPE) (P00772 27-266): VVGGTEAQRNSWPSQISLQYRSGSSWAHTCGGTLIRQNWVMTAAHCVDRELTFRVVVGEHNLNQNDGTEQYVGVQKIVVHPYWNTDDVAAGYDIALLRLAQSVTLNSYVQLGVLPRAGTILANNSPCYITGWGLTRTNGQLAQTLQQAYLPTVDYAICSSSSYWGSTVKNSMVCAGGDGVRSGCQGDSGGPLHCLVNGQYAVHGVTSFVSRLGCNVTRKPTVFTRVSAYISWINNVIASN

specific activity, inhibition of porcine pancreatic elastase (scale 100-300 mg (n = 12, column)): 64.34 ± 4.95 IU/mg | specific activity, inhibition of porcine pancreatic elastase (scale 200-300 mg (n = 8, vessel)): 65.87 ± 0.98 IU/mg
Substance: control rAAT starting material: control solution of recombinant alpha-1-antitrypsin starting material
